Source: patent publication US20200223925A1 (Hoffmann-La Roche, published 2020)

Tests used:
[1] = target: T1, human Fibroblast Activation Protein (FAP) (human, UniProt Q12884 1-760); experiment: flow cytometry, 3T3-huFAP cells, PE anti-human IgG secondary, MFI
T1 construct: on 3T3-huFAP or MV3 cells in the functional assays; also called huFAP; 3T3-huFAP cells (clone 19)
Experimental: (§1) Binding was assessed by flow cytometry with a FACS Fortessa (BD, Software FACS Diva). Binding curves were obtained using GraphPadPrism6.

human CD28 = target: T2, human CD28 (human, UniProt P10747 19-220); experiment: flow cytometry, CHO cells stably overexpressing human CD28, monovalent one-armed IgG from supernatant, PE anti-human IgG secondary, MFI
T2 construct: on primary human T cells in the functional assays; also called huCD28; CHO cells expressing human CD28
Experimental: as §1

Row | Binder | binding result [1] | binding result (human CD28)
1 | Molecule E: FAP(4B9)-CD28(SA) 1+2 format (bispecific antibody, human IgG1, kappa, L234A L235A, bivalent anti-CD28(SA), monovalent anti-FAP (VH on knob chain, VL on hole chain), huIgG1 PG-LALA; also called P1AD9011; FAP-CD28(SA) 1+2) light: not shown heavy 1: not shown heavy 2: QVQLVQSGAEVKKPGASVKVSCKASGYTFTSYYIHWVRQAPGQGLEWIGCIYPGNVNTNYNEKFKDRATLTVDTSISTAYMELSRLRSDDTAVYFCTRSHYGLDWNFDVWGQGTTVTVSSASTKGPSVFPLAPSSKSTSGGTAALGCLVKDYFPEPVTVSWNSGALTSGVHTFPAVLQSSGLYSLSSVVTVPSSSLGTQTYICNVNHKPSNTKVDKKVEPKSCDKTHTCPPCPAPEAAGGPSVFLFPPKPKDTLMISRTPEVTCVVVDVSHEDPEVKFNWYVDGVEVHNAKTKPREEQYNSTYRVVSVLTVLHQDWLNGKEYKCKVSNKALGAPIEKTISKAKGQPREPQVCTLPPSRDELTKNQVSLSCAVKGFYPSDIAVEWESNGQPENNYKTTPPVLDSDGSFFLVSKLTVDKSRWQQGNVFSCSVMHEALHNHYTQKSLSLSPGGGGGSGGGGSGGGGSGGGGSEIVLTQSPGTLSLSPGERATLSCRASQSVTSSYLAWYQQKPGQAPRLLINVGSRRATGIPDRFSGSGSGTDFTLTISRLEPEDFAVYYCQQGIMLPPTFGQGTKVEIK | binds | –
2 | CD28(SA)_variant_28 (antibody, human IgG1, kappa, L234A L235A, monovalent one-armed IgG-like construct; from supernatant; also called P1AE3084) heavy: not shown light: not shown DKTHTCPPCPAPEAAGGPSVFLFPPKPKDTLMISRTPEVTCVVVDVSHEDPEVKFNWYVDGVEVHNAKTKPREEQYNSTYRVVSVLTVLHQDWLNGKEYKCKVSNKALGAPIEKTISKAKGQPREPQVCTLPPSRDELTKNQVSLSCAVKGFYPSDIAVEWESNGQPENNYKTTPPVLDSDGSFFLVSKLTVDKSRWQQGNVFSCSVMHEALHNRFTQKSLSLSP | – | binds
